The source of these data is US20080124780A1, “Hybrid immobilized catalytic system with controlled permeability” (NORTHEASTERN UNIVERSITY, priority 2002, published 2008).

The conditions of this series: not told; for Permeability Coefficient: pH 7.4.

Source text: In order to estimate the molecular weight cut-off point of the cross-linked chitosan, a model representing the chitosan layer was developed in which a thin membrane acts as a layer surrounding the alginate core. The permeability coefficients for vitamin B2 (molecular weight 376 daltons) and vitamin B12 (molecular weight 1355 daltons) representing low-molecular weight substrates, and myoglobin (molecular weight 14,000 daltons) representing a high molecular weight substrate, were studied.
Chitosan solution was prepared by dissolving the polymer (750 kDa, 87.6% deacetylation) obtained from Pronova Biopolymers (Raymond, Wash.) in 0.1-M acetic acid to make a 0.75% (w/v) solution. Films were made by pouring 10 ml of the solution into a Petri dish (100×15 mm) and air-drying for up to 48 hours. The resulting films were dipped into a 3.0% (w/v) aqueous sodium tri-polyphosphate (Na-TPP, Sigma Chemical Company, St. Louis, Mo.) solution and kept for 1.5 hours. The cross-linked membranes were washed with distilled water once and stored in PBS at 4° C.
Using a side-by-side diffusion apparatus, the permeability coefficients of vitamin B2, vitamin B12, and myoglobin were determined. Briefly, each apparatus was composed of a donor compartment and a receptor compartment, with a 15-ml capacity. The donor and receptor compartments were separated by the membrane.
The donor compartment was filled with 15 ml of vitamin B2, vitamin B12, or myoglobin solution, and the receptor compartment was filled with 15 ml of phosphate buffered-saline (PBS) pH 7.4. The concentrations of vitamin B2, vitamin B12 and myoglobin were 0.1, 1.0, and 0.1 mg/ml respectively. The receptor compartment was stirred and temperature was controlled in both compartments at 37° C. by a circulating water bath. […] The absorbance values of vitamin B2 at 440 nm, vitamin B12 at 361 nm, and myoglobin at 410 nm were measured using a Shimadzu 160U UV/IV spectrophotometer (Columbia, Md.). The concentration of the diffused compound into the receptor compartment was calculated from calibration curves constructed earlier. […]

On to myoglobin, for which the “permeation through the membrane” value is reported as “permeated at only a low level” and the “Permeability Coefficient” value is 0.34 ± 0.89 cm^2/min × 10^6.

For the substance vitamin B12, the “Permeability Coefficient” value stood at 7.46 ± 1.47 cm^2/min × 10^6.
